# Test results published in the DeepSol protein solubility set.
# Test: soluble on expression in E. coli; label from the status in PepcDB or PDB records
row,Sequence,soluble on expression in E. coli
1,MKEKVSMVSLGCPKNLVDAEVMLGCLAKDQYEITTDEHEADIIIVNTCSFIGDAKKESIDTILDLADRKHDGRCKLLVVTGCLPQRYQEELATELPEVDIFVGTADYPRIAEIIAEKRGVAEQLRYISDPNYIFDESLPRLKSSPAYTAYLKIAEGCSNCCSYCVIPSLRGALRSRPLDNLLMEARTLVATGTREINLIAQDITAWGRDLPGSPTLEELVRELAKIVGLRWIRLLYAYPDGITDGLIEIIKTEPKVCKYLDIPIQHISDPVLKRMNRRSTEPQIRALIAKIRAEIPEIALRTSLIVGFPGETEEDFRTLLHYVEETQFDRLGVFCYSREEGTPAAGMEDQVSERVKRDRYKKLMKVQARLSFKRNRRLIDTEEEVIVEGYSDETDLLLKGRSSRQAPDIDGQVYITAGNANVGDIVRLRITDSSDYDLIGEIVEELEHHHHHH,soluble
2,SLVNLKVNLLLVDYRGYGKSEGEASEEGLYLDSEAVLDYVMTRPDLDKTKIFLFGRSLGGAVAIHLASENSHRISAIMVENTFLSIPHMASTLFSFFPMRYLPLWCYKNKFLSYRKISQCRMPSLFISGLSDQLIPPVMMKQLYELSPSRTKRLAIFPDGTHNDTWQCQGYFTALEQFIKEVVKSHSPEEMAKTSSNVTII,soluble
3,MSLQRFNQRVWMMFGEFNLIDKYFSNRQAQRKDVHLALGDDCAIVKVPENSRVAISTDTLVAGTHFLAQANPAWVAHKALASNISDLAAMGATPAWVSLALTLPEIDDAWLTPFCDAFFELAKYYNVQLIGGDTTKGPLSITLTVQGFLPKEQAMLRSGAKVGDWLYVTGDLGDSQAGLDVILDPEKRHLPFADILEQRHYLSTPRIVAGQALVHLASSAIDISDGLIADLQHILRRSNVGASIDVSLLPLSKELLQFVDSVTSAQQYALTSGEEYELCFTIPEENRGSLENALAHCGTKVTCIGQIRPAGTFELHNQGKKLDWQLAGYDHFKVKAEGHHHHHH,soluble
4,GPGSMDDKQAFFVRCIDGKTFKMVIRGDLGKLTVGKIRRYLKSYGVQDGMQLLFNGLSLADEQVGSDFGLCNGATLHLGPPSFSEPAVPQRTHGQGFSDEAAGSRTGDPTDTPHSSLSGDSRERNSKADSTHRDPCGGLSHADPARGTATYSGGRYNVDKGIPVTATSATKTNIDRIPSADLTSHSGFPVALEVENQQLREQVELLRREVADLRQKNKAPRATVLRQDLTSIEVLQSAKSNLQELAEELGVPLQFDTNFTCVVGDDESHTVLVTFDCVTERLYIYSTLLTQIPHDGEVRAKLYELLLEGSLLSREVCGGGIGISPQNGLVLLSTTIPLRHCNSSALKDIMPVFVETVARWRSLINELLN,soluble
5,MASLAKNLKNVTPNVRRAVVTWDKAERIQRNEEIFKNSESVVHRLPEHYKTRYWETILSDKTPVHYRPPTSRFAHDSFKNVEIELEENPIIGIRTPEGDDGLWGGERVVKGWIESAPYTKKKILPRYWVPKLFFPALKNVVLYSEILDKYIKVTVTERAMRLIDEHFGLDYYILESKEIDLDSKFANSLKREMLLTLTTESYYEENDEKKAYIKEKYADFVIPEREAEWIGLELNEAARKQQDMEDSTAPEPLKYKFEQSLLERLRDGTDEISQELENPEAPMKTESKFGDKMFGKYLNPIGKKLRSATN,not soluble
6,SMSPEPDCQKQFQAAVSVIQNLPKNGSYRPSYEEMLRFYSYYKQATMGPCLVPRPGFWDPIGRYKWDAWNSLGKMSREEAMSAYITEMKLVAQKVIDTVPLGEVAE,soluble
7,MGHHHHHHSHMCVARVYHGWLFEGLGRDKAEELLQLPDTKVGSFMIRESETKKGFYSLSVRHRQVKHYRIFRLPNNWYYISPRLTFQCLEDLVNHYSEVADGLCCVLTTPCLTQSTAAPAVRASSSPVTLRQKTVDWRRVSRLQEDPEGTENPLGVDESLFSYGLRESIASYLSLTSEDNTSFDRKKKSISLMYGGSKRKSSFFSSPPYFED,soluble
8,SNASVFDLFSIGIGPSSSHTVGPMLAANAFLQLLEQKNLFDKTQRVKVELYGSLALTGKGHGTDKAILNGLENKAPETVDPASMIPRMHEILDSNLLNLAGKKEIPFHEATDFLFLQKELLPKHSNGMRFSAFDGNANLLIEQVYYSIGGGFITTEEDFDK,soluble
9,MSLGPPSIARTVTPNASIPKTPEDISILPVNDEPGYLQDSKTEQNYPELADAVKSQTSQTCSEEHKYVIMIDAGSTGSRVHIYKFDVCTSPPTLLDEKFDMLEPGLSSFDTDSVGAANSLDPLLKVAMNYVPIKARSCTPVAVKATAGLRLLGDAKSSKILSAVRDHLEKDYPFPVVEGDGVSIMGGDEEGVFAWITTNYLLGNIGANGPKLPTAAVFDLGGGSTQIVFEPTFPINEKMVDGEHKFDLKFGDENYTLYQFSHLGYGLKEGRNKVNSVLVENALKDGKILKGDNTKTHQLSSPCLPPKVNATNEKVTLESKETYTIDFIGPDEPSGAQCRFLTDEILNKDAQCQSPPCSFNGVHQPSLVRTFKESNDIYIFSYFYDRTRPLGMPLSFTLNELNDLARIVCKGEETWNSVFSGIAGSLDELESDSHFCLDLSFQVSLLHTGYDIPLQRELRTGKKIANKEIGWCLGASLPLLKADNWKCKIQSAEGHHHHHH,soluble
10,MLRHSRHNAVFILDTAGIIMGISEGAQRSYGYTHKDVHGKYFDMLFTEESRKQQKPELELAKVLQYGTAADYNEFVHKDGRHIWTEGESLLITDVWGDSFIIKNVHSLDKEKEEQRNLQQQNEKLLRINNDLDTFVYTASHDLKNPVSNIESLVSIMQYELKHGADAEAVEPVMSRITEALNRFKTTLNELTEISRIDAPVDTDEMYVSFDSILQEVMYDVQDLVDSTEASIQSDFSAATMVRFSKKNVRSILFNLLSNALKYRSPERKPEIYIETKPAGEYILLSVRDNGIGIEPAQHKKVFQFFKRLHTHVQGTGVGMGIVKKIMDNTGGKITLESIPGKGSAFTVHFKQ,not soluble
11,MLPIIYSLRNCPYAMRARLAIFKAKQAVLLRDLVLSHKPAEMIAVSPKGTVPVLVLANSTVIEESLEVMLWALQQTDPDDLLHCQQEGALPEMLSLINEFDNGFKTSLEAYKCAKRYQEDNIAQCRVVCQQYIEQLEQRLTEHMFLMSDKESLADIALVPFIRQFARVERQWYLQSPYPRVRRWLNSYLQSPVFTKVMAKHPLWLDNQQDILFGVN,not soluble
12,MAHHHHHHMPFTEVYGVEQFRDIANDPTLTVVCFSAVWCGPCKTIEKDLDRLTYEFASVRFAKVDADNNTDIVSKCRVMQLPTFMLVRAGQMLGYVIGADLAQLKAKIREEANKS,soluble
13,MSLSIQSGEILETVKMVADQNFDVRTITIGIDLHDCISSDINVLNQNIYNKITTVGKDLVTTAKYLSAKYGVPIVNQRISVTPIAQIAAATHADSYVSVAQTLDKAAKAIGVSFIGGFSALVQKGMSPSDEVLIRSIPEAMKTTDIVCSSINIGSTRAGINMDAVKLAGETVKRTAEITPEGFGCAKIVVFCNAVEDNPFMAGAFHGSGEADAVINVGVSGPGVVKAALENSDATTLTEVAEVVKKTAFKITRVGELIGREASKMLNIPFGILDLSLAPTPAVGDSVARILEEMGLSVCGTHGTTAALALLNDAVKKGGMMASSAVGGLSGAFIPVSEDEGMIAAAEAGVLTLDKLEAMTAVCSVGLDMIAVPGDTPAHTISGIIADEAAIGMINSKTTAVRIIPVTGKTVGDSVEFGGLLGYAPVMPVKEGSCEVFVNRGGRIPAPVQSMKNEGHHHHHH,soluble
14,MDESIDDVQETRTIAIPLKDSHEDEVIEINCSELPDGEEVLQILEAEEAKLSYWIEVALEYYRQDRVDLFMMILESAGSRAGLEYEGVKQDQMRALDILAAYWMTQGYREKAKDKKSDFFSKATVLFNTADKIAMYEWSHLTVRAWFYLFERDKSTNKYELADQQFNYVVKTNPKNVLPLIGKAVIAFNKKDYKTAIYYFRKAIRQCRHTIADLRVGIGHCFAKMGMMDKAKTAFERAMEIEPYNVSAMCGLGIILLNTYDHDSLKHAVSLFGRSYNLQTDHPVALIHLANHFFFKKEIERAWTLAWHAATYNDCDSIKAEAFYQMGRCRHAQGQFDGAYKYYYQARQANNGEHTLAHYGLGQMYIHRNEIEEAIKCFDTVHKRLPNNTDTMKILGSLYAHVQLNDPAQTAEARQKGRDVLGKYLAVENDDYEACIDLAQLLEATDPKRSLELYENAIDLLVTNESIQPQPEMLNNVGALYMSMKQYEKAEHHFKRAKERLEEQLNTDEGSLLLERRSAPEKSHLLTIRYNLALCLEHLCRTVEAEQMYKDIVKECPGYIDGYLRLGCITRDRHQVYESSLWLKQGVQFDQASPIVWTLIGNLHFAKNEWMPAQKKFEFILSKIFNNKIPDPYSLVALGNVWFEQLLNPSRKKEDEKKYIDRALQMYQKALKLQPKNMYAANGIGCVLAYKRNWNDARDVFSQVRESTSEFYDVWLNIAHVCMEREQWMAAVQMYSSAMKKFRKENDSTLQHYLAKAYYRANMLNEAKEALECAMLDQLDNTQLKFNYAIVLKKSAKEVLRGHKMTSEQVTAAIDDLKFADKIFQYISKNDDRQSSHTGMRISRTICAEEAKNCKDLLTQAKHKLAAAQTQDEEERRLMEKQEKEKIALQNKMIEEARAKEEAEKQKLEDMKNLRLSFIEMTKDVLRLPEIVEEKRRGGGGRKRRNDDGDEFVNDSSDAGNYDGEEGGEDGERRERRKKDKAAKKASRKKRERRDSGGPDSNRRDEKKRKRKEERDRKLQEKLSAKQSAKIKSRAFLSSSESSDDDKPKPAADSSDDEVDPRPPVDEFDSPTRTDSDSDRETTTKKKKKKAVVDSDEGSVSGSGSGSDNDDKPIIGGSDDDDDDKPAGGNSRDSDGSDAPKKKVIESDSD,not soluble
15,IRSIWENNGFGLMSSKTMTDFDYWISDFEKIGASQKEAEQLIVKAIEIAIDANARNYNYINAILKDWEQRGFKSVEEREA,soluble
16,MTKKQKEILFCDYFEEWVEVYKVGAIAKITLAKYYNAAKQLRDLCPKLFISDFDRREYQRIINVYAETHEKQTVKDFHHHVKACIKDLFHDGLIDKDPTYRVVIKGAEPTRAKKRKFLQKEELSKLLQSLDMSQIGFGWFVMLVAKTGMRYAEALAITPADFDWTAQTISINKTWDYKYNKGFAKTKTLSSVRTIKIDWQIVGQFKPLIKDFPEDEPIFVEKFGDGTYKRQFNSTINNFLAVKCN,not soluble
17,MSLLERLNQDMKLYMKNREKDKLTVVRMVKASLQNEAIKLKKDSLTEDEELTVLSRELKQRKDSLQEFSNANRLDLVDKVQKELDILEVYLPEQLSEEELRTIVNETIAEVGASSKADMGKVMGAIMPKVKGKADGSLINKLVSSQLS,soluble
18,MRVVRPEFRPAPGLDTDAMASRQRDIAAVADFADDHGLTPERIGLDEPPGEQAALGGATTSGEAAPVVVGVDQAFRDDEVSVSAAVAIRDGAVIERAAGNAPLDVPYVPGLLAFREGSAVIDALSSLSVEPDLLVVDGSGRIHYRQAGLATHVGVLFDVPAVGVAKSLLCGTPAAALADPLPAGTRVAIEADDSMDAPDGAVVGYALQSRQYPTPETRHINPLYVSPGHRVSAGTAADLVEATCTQYKLPAPTRLADQYAADLT,not soluble
19,MGSDKIHHHHHHMAAVAHVKIDAAGEKRVLYLVDKSGFGGVQTIAYTLMRHGVDERIGMDFFFLRNINDRFGMEDVREPNVFYSRATHRYSLRPFVEILRFIREKKVSILHLNGNKSIILGLVIKKLFQPTIKIIAHEHGGVFDYSRWYAAFLKSFRNSFDLFITISNYRKHFLVERCLVAPSAIRVIDNFVDPARLATASASACGHTDRCDSEGDKPFVIGYVGGLSRIKGCDVLIRALPPLRERLGNFRVMIAGDGPARAELEELVAALGLGDIVSFLGFVDPPGIAYAQFDMMVIPSRSEEGPICLYEAWMMGLPVVASNAPVLNERIRDGETGILFQSDEPCDLAEKIYSVCRNPDVAAHIRAGGSCEAARHTVERYRGDLRDVYLSL,not soluble
